Assay results published in US20040097712A1 (Amgen, published 2004).

Key:
[1] = target: T1, IL-1R1 on human cells (primary human chondrocytes; human whole blood) (human, UniProt P14778 18-569); assay: cell-based or functional assay
T1 sequence (looked up): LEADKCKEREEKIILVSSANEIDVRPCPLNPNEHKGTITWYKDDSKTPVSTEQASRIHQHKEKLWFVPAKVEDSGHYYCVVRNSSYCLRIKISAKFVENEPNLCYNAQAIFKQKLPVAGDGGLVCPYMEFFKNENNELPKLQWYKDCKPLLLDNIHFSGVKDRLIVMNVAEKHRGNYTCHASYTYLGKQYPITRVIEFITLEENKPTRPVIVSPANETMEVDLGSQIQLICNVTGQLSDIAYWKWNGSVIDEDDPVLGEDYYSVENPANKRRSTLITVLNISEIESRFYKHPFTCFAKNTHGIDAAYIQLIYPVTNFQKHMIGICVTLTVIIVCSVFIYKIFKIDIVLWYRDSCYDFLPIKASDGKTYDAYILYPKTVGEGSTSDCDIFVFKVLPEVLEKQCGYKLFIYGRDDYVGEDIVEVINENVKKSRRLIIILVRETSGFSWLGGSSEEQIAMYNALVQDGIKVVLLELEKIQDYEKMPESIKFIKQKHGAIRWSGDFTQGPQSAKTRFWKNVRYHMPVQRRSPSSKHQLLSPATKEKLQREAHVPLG

[2] = target: T1, IL-1R1 on human cells (primary human …); assay: cell-based or functional assay; remark: listed apart in the source
[3] = target: T2, ovalbumin (negative control) (UniProt P01012 2-386); assay: ELISA, plates coated with the protein, anti-human Fc-HRP detection
T2 construct: also called OA
T2 sequence (looked up): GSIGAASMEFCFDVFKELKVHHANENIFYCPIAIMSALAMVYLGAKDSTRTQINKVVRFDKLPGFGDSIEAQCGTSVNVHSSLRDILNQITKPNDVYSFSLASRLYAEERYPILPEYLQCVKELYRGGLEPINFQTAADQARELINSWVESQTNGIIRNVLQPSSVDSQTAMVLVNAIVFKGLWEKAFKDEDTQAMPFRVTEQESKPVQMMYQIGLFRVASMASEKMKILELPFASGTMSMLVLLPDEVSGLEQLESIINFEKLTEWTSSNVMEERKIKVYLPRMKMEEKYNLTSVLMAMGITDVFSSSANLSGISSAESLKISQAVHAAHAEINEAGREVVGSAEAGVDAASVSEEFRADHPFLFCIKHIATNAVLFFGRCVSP
From the text: (§1) The antibodies were subjected to a preliminary epitope sorting experiment. ELISA plates were coated with human sIL-1R1 (1+2+3 domain), truncated human sIL-1R1 (1+2 domain), rat sIL-1R1, human sIL-1R type II, and ovalbumin (negative control). Antibody binding was detected with a horseradish peroxidase-conjugated anti-Human Fc antibody (Pierce Chemical Co., Rockford, Ill.). A check mark (√) in Table 2 represents a positive result for binding; “X” represents a negative result.

[4] = target: T3, human sIL-1R type II (1+2+3 domain) (human, UniProt P27930 14-343); assay: as above
T3 construct: extracellular domain; also called Hu sIL-1RII; human type II receptor
T3 sequence (looked up): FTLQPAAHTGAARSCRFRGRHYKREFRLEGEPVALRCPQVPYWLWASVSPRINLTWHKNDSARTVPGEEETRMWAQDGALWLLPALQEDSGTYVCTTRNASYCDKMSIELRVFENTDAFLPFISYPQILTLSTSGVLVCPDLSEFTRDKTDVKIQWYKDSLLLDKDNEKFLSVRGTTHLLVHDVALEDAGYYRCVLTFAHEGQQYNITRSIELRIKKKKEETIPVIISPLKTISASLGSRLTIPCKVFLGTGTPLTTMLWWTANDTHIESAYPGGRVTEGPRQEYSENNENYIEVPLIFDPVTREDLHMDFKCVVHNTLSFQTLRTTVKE
From the text: as §1

[5] = target: T4, rat sIL-1R1 (1+2+3 domain) (rat, UniProt Q02955 20-338); assay: as above
T4 construct: extracellular domain
T4 sequence (looked up): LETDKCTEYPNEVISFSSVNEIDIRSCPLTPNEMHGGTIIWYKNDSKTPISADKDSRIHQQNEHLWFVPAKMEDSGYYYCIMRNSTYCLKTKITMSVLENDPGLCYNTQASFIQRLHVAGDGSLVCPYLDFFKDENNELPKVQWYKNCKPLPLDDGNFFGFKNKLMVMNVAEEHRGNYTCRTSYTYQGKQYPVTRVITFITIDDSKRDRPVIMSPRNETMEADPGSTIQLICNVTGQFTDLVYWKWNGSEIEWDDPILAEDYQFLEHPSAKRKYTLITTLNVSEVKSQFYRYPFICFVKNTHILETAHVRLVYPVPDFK
From the text: as §1

[6] = target: T1, IL-1R1 on human cells (primary human …); assay: cell-based or functional assay; remark: listed apart in the source

B1: 15C4 human anti-IL-1R1 monoclonal antibody (purified from hybridoma supernatant) (antibody, V domains shown)
VH: EVQLMQSGAEVKKPGESLKISCKGSGYSFSFHWIAWVRQMPGKGLEWMGIIHPGASDTRYSPSFQGQVTISADNSNSATYLQWSSLKASDTAMYFCARQRELDYFDYWGQGTLVTVSS
VL: EIVLTQSPDFQSVTPKEKVTITCRASQSIGSSLHWYQQKPDQSPKLLIKYASQSFSGVPSRFSGSGSGTDFTLTINSLEAEDAAAYYCHQSSSLPLTFGGGTKVEIK
notes: Human IgG kappa from HuMab mice
[1]
  IC50, inhibition of IL-1-induced IL-6 production in human whole blood, composite (pooled data): 0.126 nM
  IC50, inhibition of IL-1-induced IL-6 production in human whole blood, donor 1047: 0.126 nM
  IC50, inhibition of IL-1-induced IL-6 production in human whole blood, donor 1319: 0.111 nM
[2]
  IC50, inhibition of IL-1β induced IL-6 production in primary human chondrocytes (Table 4B): 0.007 nM
[3]
  binding result: no binding
[4]
  binding result: no binding
[5]
  binding result: no binding
[6]
  IC50, inhibition of IL-1β induced IL-6 production in primary human chondrocytes (Table 4A): 0.016 nM
